Measurements reported in patent US20100184697A1 (U S OF AMERICA AS REPRESENTED BY THE SECRETAR, published 2010).
Square brackets hold non-standard residues; d marks the D form. Ends that are not written are not given here. Nle = CCCC[C@H](N)C(=O)O; Dab = NCC[C@H](N)C(=O)O

Biological target: STAT3 (human, UniProt P40763 2-770, limits assumed)
Experiment: cell-based or functional assay

Chain of STAT3 (P40763 2-770 limits assumed): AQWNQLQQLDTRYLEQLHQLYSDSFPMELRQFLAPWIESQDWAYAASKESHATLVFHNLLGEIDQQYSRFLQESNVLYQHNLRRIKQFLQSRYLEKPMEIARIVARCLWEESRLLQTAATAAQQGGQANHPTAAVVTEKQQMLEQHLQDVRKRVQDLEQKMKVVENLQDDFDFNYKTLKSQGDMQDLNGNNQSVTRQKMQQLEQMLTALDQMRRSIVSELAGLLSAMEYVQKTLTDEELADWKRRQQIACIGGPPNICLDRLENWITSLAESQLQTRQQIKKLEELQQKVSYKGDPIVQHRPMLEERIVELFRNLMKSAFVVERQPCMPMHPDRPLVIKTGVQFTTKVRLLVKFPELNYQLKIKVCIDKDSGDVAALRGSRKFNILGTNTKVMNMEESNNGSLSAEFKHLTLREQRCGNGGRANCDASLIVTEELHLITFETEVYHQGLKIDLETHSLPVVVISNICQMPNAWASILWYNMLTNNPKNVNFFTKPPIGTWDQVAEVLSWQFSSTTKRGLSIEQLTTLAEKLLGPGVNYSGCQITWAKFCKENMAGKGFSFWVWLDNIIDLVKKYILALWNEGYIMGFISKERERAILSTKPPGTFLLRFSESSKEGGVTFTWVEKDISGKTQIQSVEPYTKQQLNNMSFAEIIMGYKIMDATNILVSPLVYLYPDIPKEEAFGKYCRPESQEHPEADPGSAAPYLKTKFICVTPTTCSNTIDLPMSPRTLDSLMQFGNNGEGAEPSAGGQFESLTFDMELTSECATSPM

| Binder | Activity, % of control (luciferase reporter, GAS or STAT3 element, MCF-7 cells) |
| --- | --- |
| LDTRYLEQLH[Dab]LYRQIKIWFPNRR[Nle]KWKK-NH2 (N-terminus assumed; SMILES CCCC[C@H](NC(=O)[C@H](CCCNC(=N)N)NC(=O)[C@H](CCCNC(=N)N)NC(=O)[C@H](CC(N)=O)NC(=O)[C@@H]1CCCN1C(=O)[C@H](Cc1ccccc1)NC(=O)[C@H](Cc1c[nH]c2ccccc12)NC(=O)[C@@H](NC(=O)[C@H](CCCCN)NC(=O)[C@@H](NC(=O)[C@H](CCC(N)=O)NC(=O)[C@H](CCCNC(=N)N)NC(=O)[C@H](Cc1ccc(O)cc1)NC(=O)[C@H](CC(C)C)NC(=O)[C@H](CCN)NC(=O)[C@H](Cc1c[nH]cn1)NC(=O)[C@H](CC(C)C)NC(=O)[C@H](CCC(N)=O)NC(=O)[C@H](CCC(=O)O)NC(=O)[C@H](CC(C)C)NC(=O)[C@H](Cc1ccc(O)cc1)NC(=O)[C@H](CCCNC(=N)N)NC(=O)[C@@H](NC(=O)[C@H](CC(=O)O)NC(=O)[C@@H](N)CC(C)C)[C@@H](C)O)[C@@H](C)CC)[C@@H](C)CC)C(=O)N[C@@H](CCCCN)C(=O)N[C@@H](Cc1c[nH]c2ccccc12)C(=O)N[C@@H](CCCCN)C(=O)N[C@@H](CCCCN)C(N)=O) [Hel2H-Pen] | 43 % of control |
| LDTRYLEQLHKLYSRQIKIWFPNRR[Nle]KWKK-NH2 (N-terminus assumed; SMILES CCCC[C@H](NC(=O)[C@H](CCCNC(=N)N)NC(=O)[C@H](CCCNC(=N)N)NC(=O)[C@H](CC(N)=O)NC(=O)[C@@H]1CCCN1C(=O)[C@H](Cc1ccccc1)NC(=O)[C@H](Cc1c[nH]c2ccccc12)NC(=O)[C@@H](NC(=O)[C@H](CCCCN)NC(=O)[C@@H](NC(=O)[C@H](CCC(N)=O)NC(=O)[C@H](CCCNC(=N)N)NC(=O)[C@H](CO)NC(=O)[C@H](Cc1ccc(O)cc1)NC(=O)[C@H](CC(C)C)NC(=O)[C@H](CCCCN)NC(=O)[C@H](Cc1c[nH]cn1)NC(=O)[C@H](CC(C)C)NC(=O)[C@H](CCC(N)=O)NC(=O)[C@H](CCC(=O)O)NC(=O)[C@H](CC(C)C)NC(=O)[C@H](Cc1ccc(O)cc1)NC(=O)[C@H](CCCNC(=N)N)NC(=O)[C@@H](NC(=O)[C@H](CC(=O)O)NC(=O)[C@@H](N)CC(C)C)[C@@H](C)O)[C@@H](C)CC)[C@@H](C)CC)C(=O)N[C@@H](CCCCN)C(=O)N[C@@H](Cc1c[nH]c2ccccc12)C(=O)N[C@@H](CCCCN)C(=O)N[C@@H](CCCCN)C(N)=O) [Hel2B-Pen] | 100 % of control |
| Ac-DTRYLEQLHALYRQIKIWFPNRR[Nle]KWKK-NH2 (SMILES CCCC[C@H](NC(=O)[C@H](CCCNC(=N)N)NC(=O)[C@H](CCCNC(=N)N)NC(=O)[C@H](CC(N)=O)NC(=O)[C@@H]1CCCN1C(=O)[C@H](Cc1ccccc1)NC(=O)[C@H](Cc1c[nH]c2ccccc12)NC(=O)[C@@H](NC(=O)[C@H](CCCCN)NC(=O)[C@@H](NC(=O)[C@H](CCC(N)=O)NC(=O)[C@H](CCCNC(=N)N)NC(=O)[C@H](Cc1ccc(O)cc1)NC(=O)[C@H](CC(C)C)NC(=O)[C@H](C)NC(=O)[C@H](Cc1c[nH]cn1)NC(=O)[C@H](CC(C)C)NC(=O)[C@H](CCC(N)=O)NC(=O)[C@H](CCC(=O)O)NC(=O)[C@H](CC(C)C)NC(=O)[C@H](Cc1ccc(O)cc1)NC(=O)[C@H](CCCNC(=N)N)NC(=O)[C@@H](NC(=O)[C@H](CC(=O)O)NC(C)=O)[C@@H](C)O)[C@@H](C)CC)[C@@H](C)CC)C(=O)N[C@@H](CCCCN)C(=O)N[C@@H](Cc1c[nH]c2ccccc12)C(=O)N[C@@H](CCCCN)C(=O)N[C@@H](CCCCN)C(N)=O) [Hel2A-3-Pen] | 89 % of control |
| DTRYLEQLH[Dab]LYRQIKIWFPNRR[Nle]KWKK-NH2 (N-terminus assumed; SMILES CCCC[C@H](NC(=O)[C@H](CCCNC(=N)N)NC(=O)[C@H](CCCNC(=N)N)NC(=O)[C@H](CC(N)=O)NC(=O)[C@@H]1CCCN1C(=O)[C@H](Cc1ccccc1)NC(=O)[C@H](Cc1c[nH]c2ccccc12)NC(=O)[C@@H](NC(=O)[C@H](CCCCN)NC(=O)[C@@H](NC(=O)[C@H](CCC(N)=O)NC(=O)[C@H](CCCNC(=N)N)NC(=O)[C@H](Cc1ccc(O)cc1)NC(=O)[C@H](CC(C)C)NC(=O)[C@H](CCN)NC(=O)[C@H](Cc1c[nH]cn1)NC(=O)[C@H](CC(C)C)NC(=O)[C@H](CCC(N)=O)NC(=O)[C@H](CCC(=O)O)NC(=O)[C@H](CC(C)C)NC(=O)[C@H](Cc1ccc(O)cc1)NC(=O)[C@H](CCCNC(=N)N)NC(=O)[C@@H](NC(=O)[C@@H](N)CC(=O)O)[C@@H](C)O)[C@@H](C)CC)[C@@H](C)CC)C(=O)N[C@@H](CCCCN)C(=O)N[C@@H](Cc1c[nH]c2ccccc12)C(=O)N[C@@H](CCCCN)C(=O)N[C@@H](CCCCN)C(N)=O) [Hel2I-Pen] | 53 % of control |

Now from value to binder:

| Activity, % of control (luciferase reporter, GAS or STAT3 element, MCF-7 cells) | Binder |
| --- | --- |
| 100 % of control | DTRYLEQLHKLYSRQIKIWFPNRR[Nle]KWKK-NH2 (N-terminus assumed; SMILES CCCC[C@H](NC(=O)[C@H](CCCNC(=N)N)NC(=O)[C@H](CCCNC(=N)N)NC(=O)[C@H](CC(N)=O)NC(=O)[C@@H]1CCCN1C(=O)[C@H](Cc1ccccc1)NC(=O)[C@H](Cc1c[nH]c2ccccc12)NC(=O)[C@@H](NC(=O)[C@H](CCCCN)NC(=O)[C@@H](NC(=O)[C@H](CCC(N)=O)NC(=O)[C@H](CCCNC(=N)N)NC(=O)[C@H](CO)NC(=O)[C@H](Cc1ccc(O)cc1)NC(=O)[C@H](CC(C)C)NC(=O)[C@H](CCCCN)NC(=O)[C@H](Cc1c[nH]cn1)NC(=O)[C@H](CC(C)C)NC(=O)[C@H](CCC(N)=O)NC(=O)[C@H](CCC(=O)O)NC(=O)[C@H](CC(C)C)NC(=O)[C@H](Cc1ccc(O)cc1)NC(=O)[C@H](CCCNC(=N)N)NC(=O)[C@@H](NC(=O)[C@@H](N)CC(=O)O)[C@@H](C)O)[C@@H](C)CC)[C@@H](C)CC)C(=O)N[C@@H](CCCCN)C(=O)N[C@@H](Cc1c[nH]c2ccccc12)C(=O)N[C@@H](CCCCN)C(=O)N[C@@H](CCCCN)C(N)=O) [Hel2A-Pen] |
| 71 % of control | LDTRYLEQLHKLYRQIKIWFPNRR[Nle]KWKK-NH2 (N-terminus assumed; SMILES CCCC[C@H](NC(=O)[C@H](CCCNC(=N)N)NC(=O)[C@H](CCCNC(=N)N)NC(=O)[C@H](CC(N)=O)NC(=O)[C@@H]1CCCN1C(=O)[C@H](Cc1ccccc1)NC(=O)[C@H](Cc1c[nH]c2ccccc12)NC(=O)[C@@H](NC(=O)[C@H](CCCCN)NC(=O)[C@@H](NC(=O)[C@H](CCC(N)=O)NC(=O)[C@H](CCCNC(=N)N)NC(=O)[C@H](Cc1ccc(O)cc1)NC(=O)[C@H](CC(C)C)NC(=O)[C@H](CCCCN)NC(=O)[C@H](Cc1c[nH]cn1)NC(=O)[C@H](CC(C)C)NC(=O)[C@H](CCC(N)=O)NC(=O)[C@H](CCC(=O)O)NC(=O)[C@H](CC(C)C)NC(=O)[C@H](Cc1ccc(O)cc1)NC(=O)[C@H](CCCNC(=N)N)NC(=O)[C@@H](NC(=O)[C@H](CC(=O)O)NC(=O)[C@@H](N)CC(C)C)[C@@H](C)O)[C@@H](C)CC)[C@@H](C)CC)C(=O)N[C@@H](CCCCN)C(=O)N[C@@H](Cc1c[nH]c2ccccc12)C(=O)N[C@@H](CCCCN)C(=O)N[C@@H](CCCCN)C(N)=O) [Hel2A-2-Pen] |
| 56 % of control | LDTRYLEQLHQLYSRQIKIWFPNRR[Nle]KWKK-NH2 (N-terminus assumed; SMILES CCCC[C@H](NC(=O)[C@H](CCCNC(=N)N)NC(=O)[C@H](CCCNC(=N)N)NC(=O)[C@H](CC(N)=O)NC(=O)[C@@H]1CCCN1C(=O)[C@H](Cc1ccccc1)NC(=O)[C@H](Cc1c[nH]c2ccccc12)NC(=O)[C@@H](NC(=O)[C@H](CCCCN)NC(=O)[C@@H](NC(=O)[C@H](CCC(N)=O)NC(=O)[C@H](CCCNC(=N)N)NC(=O)[C@H](CO)NC(=O)[C@H](Cc1ccc(O)cc1)NC(=O)[C@H](CC(C)C)NC(=O)[C@H](CCC(N)=O)NC(=O)[C@H](Cc1c[nH]cn1)NC(=O)[C@H](CC(C)C)NC(=O)[C@H](CCC(N)=O)NC(=O)[C@H](CCC(=O)O)NC(=O)[C@H](CC(C)C)NC(=O)[C@H](Cc1ccc(O)cc1)NC(=O)[C@H](CCCNC(=N)N)NC(=O)[C@@H](NC(=O)[C@H](CC(=O)O)NC(=O)[C@@H](N)CC(C)C)[C@@H](C)O)[C@@H](C)CC)[C@@H](C)CC)C(=O)N[C@@H](CCCCN)C(=O)N[C@@H](Cc1c[nH]c2ccccc12)C(=O)N[C@@H](CCCCN)C(=O)N[C@@H](CCCCN)C(N)=O) [Hel2-Pen] |
